# Measurements taken from patent publication US7183065.
# Tests used:
# [1] = target: histone H1 peptide SEQ ID NO: 17 (human); experiment: ELISA on coated peptide; rFab at 1.0, 3.0 and 10.0 µg/ml
# [2] = target: histone H1 peptide SEQ ID NO: 20 (human); experiment: as above
binder,measurement,setting,value
NANUC-2 (Fab) chain 1: VKLLEQSGGGVVQPGKSLRLSCAASGFTFRNYGMHWVRQAPGKGLEWVAGISSDGRKKKYVDSVKGRFTISRDKSKNTLYLQMNSLRAEDTAVYYCAKLSRAGGFDIWGQGTMVTVSS chain 2: AELTQSPGTLSLFPGERATLSCRASQRISTSFLAWYQQKPGQSPRLLIFDASTRAPGIPDRFSASWSGTDFTLTISRLEPEDFAVYYCQHYGGSPWTFGQGTKVEIK,OD405,[1],0.25 OD405
same,OD405,[2],0.5 OD405
